In patent US20140274782A1, “AFFINITY REAGENTS AND METHODS FOR DETECTION, PURIFICATION, AND PROTEOMIC ANALYSIS OF METHYLATED PROTEINS” (The Board of Trustees of the Leland Stanford Junior …, priority 2013, published 2014):

Experiments:
Assay in all cases: ProtoArray, G9a array SNR minus GST array SNR
[1] = target: TMED5, G9a-methylated (human) (UniProt Q9Y3A6)
[2] = target: PAEP, G9a-methylated (human) (UniProt P09466)
[3] = target: SMAP1, G9a-methylated (human) (UniProt Q8IYB5)
[4] = target: MRPL21, G9a-methylated (human) (UniProt Q7Z2W9)
[5] = target: C12orf62, G9a-methylated (human) (UniProt Q96I36)
[6] = target: SNFT, G9a-methylated (human) (UniProt Q9NR55)
[7] = target: TCTA, G9a-methylated (human) (UniProt P57738)
[8] = target: CMTM3, G9a-methylated (human) (UniProt Q96MX0)
[9] = target: TGDS, G9a-methylated (human) (UniProt O95455)
[10] = target: CLDN15, G9a-methylated (human) (UniProt P56746)
[11] = target: FKBP14, G9a-methylated (human) (UniProt Q9NWM8)
[12] = target: FTH1 (hit 104), G9a-methylated (human) (UniProt P02794)
[13] = target: RASSF4, G9a-methylated (human) (UniProt Q9H2L5)
[14] = target: GHRL, G9a-methylated (human) (UniProt Q9UBU3)
[15] = target: NME1, G9a-methylated (human) (UniProt P15531)
[16] = target: CUTC, G9a-methylated (human) (UniProt Q9NTM9)
[17] = target: GGPS1, G9a-methylated (human) (UniProt O95749)
[18] = target: FTL, G9a-methylated (human) (UniProt P02792)
[19] = target: PPARG, G9a-methylated (human) (UniProt P37231)
[20] = target: HPCAL4, G9a-methylated (human) (UniProt Q9UM19)
[21] = target: CCL24, G9a-methylated (human) (UniProt O00175)
[22] = target: ZBP1, G9a-methylated (human) (UniProt Q9H171)
[23] = target: C12orf23, G9a-methylated (human) (UniProt Q8WUH6)
[24] = target: KIFC1, G9a-methylated (human) (UniProt Q9BW19)
[25] = target: CALN1, G9a-methylated (human) (UniProt Q9BXU9)
[26] = target: C10orf83, G9a-methylated (human) (UniProt Q8NDC4)
[27] = target: ZNF695, G9a-methylated (human) (UniProt Q8IW36)
[28] = target: LARP6, G9a-methylated (human) (UniProt Q9BRS8)
[29] = target: MGC10433 (RNA-binding protein 42), G9a-methylated (human) (UniProt Q9BTD8)
[30] = target: TMEM97, G9a-methylated (human) (UniProt Q5BJF2)
[31] = target: Magmas, G9a-methylated (human) (UniProt Q9Y3D7)
[32] = target: SMYD3, G9a-methylated (human) (UniProt Q9H7B4)
[33] = target: KCTD7, G9a-methylated (human) (UniProt Q96MP8)

Sequence of TMED5, G9a-methylated (human) (Q9Y3A6 28-229 limits assumed): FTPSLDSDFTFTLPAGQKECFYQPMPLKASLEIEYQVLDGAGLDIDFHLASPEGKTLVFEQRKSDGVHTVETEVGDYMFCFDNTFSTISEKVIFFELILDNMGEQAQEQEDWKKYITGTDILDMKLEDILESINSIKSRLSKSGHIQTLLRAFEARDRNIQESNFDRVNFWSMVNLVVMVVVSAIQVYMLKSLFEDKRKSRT
Sequence of PPARG, G9a-methylated (human) (P37231 29-505 limits assumed): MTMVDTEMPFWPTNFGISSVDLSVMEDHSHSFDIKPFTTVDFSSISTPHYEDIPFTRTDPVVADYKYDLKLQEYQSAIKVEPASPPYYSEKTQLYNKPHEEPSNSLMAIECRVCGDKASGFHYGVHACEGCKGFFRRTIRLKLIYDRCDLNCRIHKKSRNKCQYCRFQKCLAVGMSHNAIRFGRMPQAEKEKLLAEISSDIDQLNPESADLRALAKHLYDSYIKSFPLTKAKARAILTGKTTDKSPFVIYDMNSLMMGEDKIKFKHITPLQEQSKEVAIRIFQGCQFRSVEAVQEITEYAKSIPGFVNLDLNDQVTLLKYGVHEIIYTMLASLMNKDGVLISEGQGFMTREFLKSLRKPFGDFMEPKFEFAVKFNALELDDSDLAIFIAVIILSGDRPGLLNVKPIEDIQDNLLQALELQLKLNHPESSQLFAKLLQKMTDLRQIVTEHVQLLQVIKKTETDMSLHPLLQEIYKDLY
Sequence of Magmas, G9a-methylated (human) (Q9Y3D7 whole entry): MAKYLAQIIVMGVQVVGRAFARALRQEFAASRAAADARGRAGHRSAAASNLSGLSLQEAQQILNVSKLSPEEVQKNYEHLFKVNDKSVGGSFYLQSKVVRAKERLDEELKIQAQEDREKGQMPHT
Sequence of HPCAL4, G9a-methylated (human) (Q9UM19 whole entry): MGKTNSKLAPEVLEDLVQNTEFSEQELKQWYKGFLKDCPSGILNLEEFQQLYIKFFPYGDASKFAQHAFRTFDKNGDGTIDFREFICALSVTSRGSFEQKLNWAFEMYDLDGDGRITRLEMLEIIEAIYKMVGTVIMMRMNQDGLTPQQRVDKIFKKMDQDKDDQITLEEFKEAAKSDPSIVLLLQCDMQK
Sequence of C12orf62, G9a-methylated (human) (Q96I36 whole entry): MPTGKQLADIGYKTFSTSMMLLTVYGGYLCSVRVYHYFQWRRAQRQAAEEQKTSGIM
Sequence of PAEP, G9a-methylated (human) (P09466 19-180 limits assumed): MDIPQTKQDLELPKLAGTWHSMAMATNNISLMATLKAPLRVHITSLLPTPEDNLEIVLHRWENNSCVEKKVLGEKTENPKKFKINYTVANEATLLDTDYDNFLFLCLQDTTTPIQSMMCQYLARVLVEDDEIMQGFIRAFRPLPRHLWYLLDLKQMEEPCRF
Sequence of KIFC1, G9a-methylated (human) (Q9BW19 whole entry): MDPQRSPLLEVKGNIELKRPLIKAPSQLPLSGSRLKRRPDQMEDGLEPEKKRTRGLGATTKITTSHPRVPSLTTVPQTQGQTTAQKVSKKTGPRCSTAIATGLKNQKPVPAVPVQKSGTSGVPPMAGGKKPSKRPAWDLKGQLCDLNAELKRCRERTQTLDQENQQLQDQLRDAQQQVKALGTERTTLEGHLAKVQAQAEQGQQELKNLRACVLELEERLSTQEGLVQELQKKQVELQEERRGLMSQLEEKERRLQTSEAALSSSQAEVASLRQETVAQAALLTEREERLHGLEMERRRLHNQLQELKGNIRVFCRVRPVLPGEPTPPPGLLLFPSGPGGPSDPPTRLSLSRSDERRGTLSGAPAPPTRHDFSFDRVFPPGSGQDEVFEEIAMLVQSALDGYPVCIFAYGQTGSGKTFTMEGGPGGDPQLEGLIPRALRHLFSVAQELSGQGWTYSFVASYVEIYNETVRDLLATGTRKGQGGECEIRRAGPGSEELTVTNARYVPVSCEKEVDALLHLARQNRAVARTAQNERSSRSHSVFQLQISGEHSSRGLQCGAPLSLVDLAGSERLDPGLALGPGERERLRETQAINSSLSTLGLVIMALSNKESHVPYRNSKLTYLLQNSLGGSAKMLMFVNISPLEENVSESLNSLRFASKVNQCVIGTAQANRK
Sequence of FTL, G9a-methylated (human) (P02792 whole entry): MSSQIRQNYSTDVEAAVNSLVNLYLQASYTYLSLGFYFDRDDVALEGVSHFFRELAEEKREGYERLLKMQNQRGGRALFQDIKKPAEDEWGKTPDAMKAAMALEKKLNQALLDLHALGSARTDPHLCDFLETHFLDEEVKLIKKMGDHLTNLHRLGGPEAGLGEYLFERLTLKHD
Sequence of SMYD3, G9a-methylated (human) (Q9H7B4 whole entry): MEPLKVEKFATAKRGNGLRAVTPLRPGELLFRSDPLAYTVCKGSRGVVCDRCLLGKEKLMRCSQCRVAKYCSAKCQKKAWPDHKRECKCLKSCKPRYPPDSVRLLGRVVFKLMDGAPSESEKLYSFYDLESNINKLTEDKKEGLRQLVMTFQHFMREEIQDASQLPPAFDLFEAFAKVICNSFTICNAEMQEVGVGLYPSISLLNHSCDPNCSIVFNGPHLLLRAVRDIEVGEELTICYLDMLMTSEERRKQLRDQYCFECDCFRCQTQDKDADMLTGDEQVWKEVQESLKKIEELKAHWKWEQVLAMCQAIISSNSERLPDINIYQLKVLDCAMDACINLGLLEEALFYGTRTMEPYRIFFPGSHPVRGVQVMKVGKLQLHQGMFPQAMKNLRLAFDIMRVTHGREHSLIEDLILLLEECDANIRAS
Sequence of NME1, G9a-methylated (human) (P15531 whole entry): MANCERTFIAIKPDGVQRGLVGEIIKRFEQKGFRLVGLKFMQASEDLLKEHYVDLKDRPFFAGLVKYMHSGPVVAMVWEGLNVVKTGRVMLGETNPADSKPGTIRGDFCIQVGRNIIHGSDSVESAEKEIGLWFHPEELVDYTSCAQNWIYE
Sequence of ZBP1, G9a-methylated (human) (Q9H171 whole entry): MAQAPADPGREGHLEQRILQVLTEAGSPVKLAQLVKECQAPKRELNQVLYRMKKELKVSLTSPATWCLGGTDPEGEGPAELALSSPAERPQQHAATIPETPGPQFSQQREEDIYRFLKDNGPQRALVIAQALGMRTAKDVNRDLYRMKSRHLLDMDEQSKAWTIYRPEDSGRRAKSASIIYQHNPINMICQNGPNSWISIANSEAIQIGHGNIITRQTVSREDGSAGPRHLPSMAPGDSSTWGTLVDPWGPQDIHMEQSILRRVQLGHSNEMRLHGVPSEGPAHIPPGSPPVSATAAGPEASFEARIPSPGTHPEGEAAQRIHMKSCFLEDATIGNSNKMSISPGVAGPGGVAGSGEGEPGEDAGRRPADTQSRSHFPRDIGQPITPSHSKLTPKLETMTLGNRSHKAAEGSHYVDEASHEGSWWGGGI
Sequence of CLDN15, G9a-methylated (human) (P56746 whole entry): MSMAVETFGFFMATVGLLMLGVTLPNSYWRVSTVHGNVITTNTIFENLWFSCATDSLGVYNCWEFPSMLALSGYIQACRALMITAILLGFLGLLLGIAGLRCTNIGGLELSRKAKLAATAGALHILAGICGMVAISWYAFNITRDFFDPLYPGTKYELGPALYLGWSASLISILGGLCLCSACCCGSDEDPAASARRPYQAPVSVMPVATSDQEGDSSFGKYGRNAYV
Sequence of TMEM97, G9a-methylated (human) (Q5BJF2 whole entry): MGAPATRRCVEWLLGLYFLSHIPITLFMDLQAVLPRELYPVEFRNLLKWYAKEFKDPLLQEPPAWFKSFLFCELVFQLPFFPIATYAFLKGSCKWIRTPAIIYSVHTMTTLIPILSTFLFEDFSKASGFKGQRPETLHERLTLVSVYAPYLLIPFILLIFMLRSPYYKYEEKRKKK
Sequence of MGC10433 (RNA-binding protein 42), G9a-methylated (human) (Q9BTD8 whole entry): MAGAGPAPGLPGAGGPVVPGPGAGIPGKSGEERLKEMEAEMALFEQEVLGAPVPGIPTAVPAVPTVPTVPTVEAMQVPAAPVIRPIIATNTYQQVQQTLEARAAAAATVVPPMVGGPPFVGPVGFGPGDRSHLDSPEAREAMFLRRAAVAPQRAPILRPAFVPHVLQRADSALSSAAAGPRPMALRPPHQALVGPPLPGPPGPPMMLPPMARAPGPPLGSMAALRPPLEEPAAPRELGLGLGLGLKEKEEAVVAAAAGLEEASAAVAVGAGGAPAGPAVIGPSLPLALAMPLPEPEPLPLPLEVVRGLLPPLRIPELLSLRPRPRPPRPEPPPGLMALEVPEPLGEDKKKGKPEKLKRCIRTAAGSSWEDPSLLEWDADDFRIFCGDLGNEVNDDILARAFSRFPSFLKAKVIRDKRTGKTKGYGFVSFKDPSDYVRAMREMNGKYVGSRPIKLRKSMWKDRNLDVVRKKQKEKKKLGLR
Sequence of GHRL, G9a-methylated (human) (Q9UBU3 24-117 limits assumed): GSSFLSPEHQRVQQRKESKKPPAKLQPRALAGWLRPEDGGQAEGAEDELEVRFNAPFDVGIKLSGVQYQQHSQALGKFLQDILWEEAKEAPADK
Sequence of C10orf83, G9a-methylated (human) (Q8NDC4 whole entry): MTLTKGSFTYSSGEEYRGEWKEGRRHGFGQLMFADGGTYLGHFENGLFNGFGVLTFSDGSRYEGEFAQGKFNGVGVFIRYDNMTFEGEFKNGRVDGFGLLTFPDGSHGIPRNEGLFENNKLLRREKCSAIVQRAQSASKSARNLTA
Sequence of FKBP14, G9a-methylated (human) (Q9NWM8 20-211 limits assumed): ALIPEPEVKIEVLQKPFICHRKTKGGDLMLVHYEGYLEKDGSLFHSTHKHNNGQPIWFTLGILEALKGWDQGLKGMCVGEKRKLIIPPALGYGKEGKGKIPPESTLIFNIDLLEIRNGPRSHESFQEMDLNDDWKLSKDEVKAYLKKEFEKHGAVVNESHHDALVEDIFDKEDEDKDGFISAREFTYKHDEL
Sequence of CUTC, G9a-methylated (human) (Q9NTM9 whole entry): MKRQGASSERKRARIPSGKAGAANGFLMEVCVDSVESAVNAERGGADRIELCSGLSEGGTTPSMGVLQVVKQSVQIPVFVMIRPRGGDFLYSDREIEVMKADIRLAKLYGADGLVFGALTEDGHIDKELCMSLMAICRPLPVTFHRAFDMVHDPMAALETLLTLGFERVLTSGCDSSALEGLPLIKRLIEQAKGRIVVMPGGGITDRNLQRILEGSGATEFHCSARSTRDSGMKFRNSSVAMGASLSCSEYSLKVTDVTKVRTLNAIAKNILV
Sequence of LARP6, G9a-methylated (human) (Q9BRS8 other isoform, or with tags, fused parts or gaps limits assumed): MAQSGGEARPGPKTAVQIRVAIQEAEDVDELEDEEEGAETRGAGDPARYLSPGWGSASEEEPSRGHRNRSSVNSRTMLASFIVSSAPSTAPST

For 3× Flag-3×MBT (designed binder), the G9a-GST [1] was 15.5, the G9a-GST [2] was 16.5 and the G9a-GST [3] was 20.2. For the same substance, the G9a-GST [4] was 21.9, the G9a-GST [5] was 14.3 and the G9a-GST [6] was 17.1. It also gave a G9a-GST [7] of 15.2, a G9a-GST [8] of 13.7 and a G9a-GST [9] of 12.4. It also gave a G9a-GST [10] of 25.3, a G9a-GST [11] of 13.7 and a G9a-GST [12] of 31.2. It also gave a G9a-GST [13] of 14.6, a G9a-GST [14] of 24.1 and a G9a-GST [15] of 14.1. It also gave a G9a-GST [16] of 12.9, a G9a-GST [17] of 12.8 and a G9a-GST [18] of 33.5. For the same substance, the G9a-GST [19] was 13.3, the G9a-GST [20] was 12.3 and the G9a-GST [21] was 34.4. For the same substance, the G9a-GST [22] was 14, the G9a-GST [23] was 12.2 and the G9a-GST [24] was 62.4. For the same substance, the G9a-GST [25] was 18.6, the G9a-GST [26] was 14.6 and the G9a-GST [27] was 18.8. It also gave a G9a-GST [28] of 16.6, a G9a-GST [29] of 14.5 and a G9a-GST [30] of 22.8. For the same substance, the G9a-GST [31] was 15.1, the G9a-GST [32] was 16.3 and the G9a-GST [33] was 13.7.
